Assay results from publication PMC3947653 (Peptides, 2013).

Assays:
[1] = Aging of glucagon in glycine buffer at 37° C, analysed by LCMS; type: physicochemical
animals = conditions: cited from earlier work
[2] = cited from earlier work

glucagon
width of main LCMS peak, glucagon aged at pH 10 ([1]; 1 mg/ml in glycine buffer pH 10, 7 days at 37° C, reverse-phase LCMS): 3 min
deamidation events after aging, pH 10 vs pH 9 ([1]; aged 7 days at 37° C, least-squares fitting of isotopic distribution of the m/z spectrum): more deamidation events than pH 9
width of main LCMS peak, fresh glucagon ([1]; unaged glucagon, reverse-phase LCMS): 1 min
bioactivity of fibrillated glucagon given to animals (animals): retains much of its bioactivity
aggregation at alkaline pH vs acid pH [2]: much less prone to aggregation than glucagon prepared at acid pH
